# The RNAGym collection of RNA variant scans (doi:10.1073/pnas.2313332121)
# B1: TPR t1 (parent)
# chain: GACCAAUCUGCCCUCAGAGCUCGAGAACAUCUUCGGAUGCAGAGGAGGCAGGCUUCGGUGGCGCGAUAGCGCCAACGUCCUCAACCUCCAAUGCAUCCCACCACAUGAUGAUGCCUGAAGAGCCUUGGUUUUUUG
# Variants of: B1
# Assay: polymerase ribozyme fitness, log enrichment relative to wild type (log ratio); higher = more active; in vitro selection for triplet polymerase activity
# How it was run: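 After PCR construction and transcription, each subunit's mutant library from a heterodimeric triplet polymerase ribozyme was annealed with a biotinylated primer, the partner subunit and triplets. Incubation was frozen, at −7 °C, and extended constructs were gel-excised, bound to streptavidin beads and amplified by RT-PCR, in one selection round done in triplicate. Fitness is the logarithm of a genotype's enrichment divided by that of the wild type, from inverse-variance-weighted replicate averages of Illumina-sequenced inputs and outputs. The base of the logarithm is 2, and genotypes needed ≥10 input reads and ≥1 read per output.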
row,Variant,polymerase ribozyme fitness (log ratio)
1,U7G C72U C115U,0.671
2,C8A C53A,0.281
3,C8G A41C G63U G113A A118G,-3.33
4,C8G C13G A37C G52C C86U,-2.49
5,U7C C8A A27C C97U,-2.64
6,C8A A27G C56G U59G G113U,-4.68
7,C8A C31A U129C,-5.73
8,U7G G10A A41G C79A C80A C115A,-3.95
9,C8A G61A U131C,0.52
10,C8A A100U U116G U133A G135U,-0.711
11,C8A C115A U125G,1.5
12,C8A C12A C70U G77C U92A G127U U130G U131A,-6.59
13,U7G C8U C70G,-1.52
14,C8G A24G C72G C97G C115G,-4.32
15,U7G G48U C70A C86G,-1.54
16,C8A C49A G61A,0.627
17,U7G C80U,0.145
18,U7G C72U U81A A91C G107C U112C,-5.54
19,C8A C72G C85A A111G U126C,-1.51
20,U7A G63A C89U,-1.1
21,U7A C73G U129G,-2.6

row,Variant,polymerase ribozyme fitness (log ratio)
1,C8A U14A G110A,-1.09
2,U7C C13A C72G U92C,-2.47
3,U7G A46U,-1.38
4,U7C G47A G48A A90C U112C,-1.65
5,U7A C56G U92C,-1.74
6,C8A C72U U133A,-0.145
7,U7G G77U,0.185
8,C8A C13G U14G G48A G77A G128C,-5.17
9,C8A C72A G93C,0.271
10,C8G C20U A46U G52C,-3.42
11,U7G G60U,-0.565
12,C8A C13G C80U,-0.499
13,C8A G60U,-0.464
14,U7C C62U G120A G128A,0.578
15,U7C G17A G63U A121C,-1.33
16,U7G A111U,-1.87
17,C8G C11U,1.67
18,C8G C11A U96G C97G U131G,-5.45
19,C8G A27U C53U A111C C114G,-6.88
20,U7C C11U G69C,-1
21,C8G C13U G47C,-0.248

row,Variant,polymerase ribozyme fitness (log ratio)
1,U7G G65U,-5.58
2,C8A U30A A46C U109G A119U,-6.8
3,C8G C20U C89A A100U C102A,-5.22
4,C8A G47U C73G C82U,-1.82
5,U7G C8U A90U A121C,1.04
6,U7C U59A A83G U96C,-1.25
7,C8A C12A G61C G69U G120A U129G,-1.45
8,C8G A18U U21A C79A C123G,-3.84
9,U7C C72G A84C,-0.576
10,C8A C62U A118C,-2.69
11,C8G C12A U109A A119C A121G,-5.47
12,C8A C15A G52C C80A,-4.36
13,U7A C13G G63U G93A C102G C115U A121G,-7.01
14,U7G C88U A119G,1.51
15,C8A U9G C62A,-0.773
16,U7G G71C,-0.641
17,U7C A74C,0.236
18,C8G C15U G69C A90U,-3.02
19,C8G A16U A90U,-0.236
20,U7A C8G A43C C53A G69U,-0.446
21,C8A C62U,0.19

row,Variant,polymerase ribozyme fitness (log ratio)
1,U7C G10C A83C C115U,-1.32
2,U7G A50U C64U G117C,-4.92
3,U7G C28G U106A,-1.02
4,U7G U55A G58A G63U C98A A105U G120A,-5.94
5,U7A C20U,-0.343
6,U7C G39A C124U,0.776
7,U7G A18U,-0.713
8,U7A G36U G61U C124G,0.266
9,C8A G25U,-4.13
10,C8G A103U,-3.34
11,U7C C72U,0.588
12,C8G A27U C104A U133A,-3.65
13,C8G C20U G42U A83U U116C C123A,-3.74
14,C8A G44U G51U U59C G77U U112C U130A,-4.84
15,U7G G51C U55C C73A,-3.19
16,C8A A29U G63A C88U A91U C123U,-3.81
17,U7A C20G U78C,-4.76
18,C8A A46U,-1.5
19,U7A G10C G57U C88G,-2.78
20,U7G U9A G10C A18G A29C,-4.02
21,C8A C13U C49G,0.151
